Assay results: paper PMC11237593, “Human coronavirus OC43 nanobody neutralizes virus and protects mice from infection” (Journal of Virology, 2024)
Read-outs that look alike come from different tables or passages of the source.

Key:
[1] = target: T1, OC43 S1B+C (S1B and S1C domains of the hCoV-OC43 spike glycoprotein) (human coronavirus OC43, UniProt P36334 321-675); assay: BLI; conditions: both partners purified
T1 construct: also called recombinant OC43 S1B+C; recombinant OC43 protein; source: Expi293F, transfected, purified from supernatant (Ni-NTA IMAC, SEC); not shown: His6, C-terminal, cleaved
T1 sequence (looked up): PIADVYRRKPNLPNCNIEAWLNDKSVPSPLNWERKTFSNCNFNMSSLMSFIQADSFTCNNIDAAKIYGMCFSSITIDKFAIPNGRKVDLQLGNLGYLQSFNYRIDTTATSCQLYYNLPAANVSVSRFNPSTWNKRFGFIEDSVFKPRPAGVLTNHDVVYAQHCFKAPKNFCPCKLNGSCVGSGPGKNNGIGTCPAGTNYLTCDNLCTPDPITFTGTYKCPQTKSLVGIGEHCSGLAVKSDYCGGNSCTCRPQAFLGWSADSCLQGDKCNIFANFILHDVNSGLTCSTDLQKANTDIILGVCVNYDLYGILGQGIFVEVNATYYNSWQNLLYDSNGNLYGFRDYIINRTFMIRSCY

[2] = target: T1, OC43 S1B+C (S1B and S1C domains of the …); conditions: both partners purified

Row | Binder | Kd [1] [nM] | koff [1] [s⁻¹] | kon [1] [M⁻¹ s⁻¹] | Kd [2] [nM] | koff [2] [s⁻¹] | kon [2] [M⁻¹ s⁻¹]
1 | WNb 276 (VHH) VHH: QVQLQESGGGLVQSGGSLRLSCAASGFTFSNYGMMWVRQAPGKGVEWVSRIDSDGTITLYKDSVKGRFTISRDNAKNMLYLQMESLKPEDTALYYCIKVMDWVPGRAPPFRGQGTQVTVSS | 6.46 | 0.000518 | 82000 |  |  | 
2 | WNb 289 (VHH) VHH: QVQLQESGGGLVQAGGSLRLSCAASGRTFSDYAMGWFRQAPGKEREFVATISWSGGTTYYADSVKGRFTISRDNAKNTVYLQMNSLKPEDTAVYYCAAVMDLGMLAADGYEYDYWGQGTQVTVSS | 4.73 | 0.000629 | 132000 |  |  | 
3 | WNbFc 293 (Fc fusion, also called WNb 293-Fc; WNb 293-Fc fusion; source: Expi293F, transfected, purified from supernatant (MabSelect Prism A, SEC)) QVQLQESGGGSVQAGDSLRLSCVASGRTFSSYALGWFRRAPGKEREFVAAISWSGGTTYYADSVKGRFTISRDNAKNTVYLQMNSLKPEDTAVYYCAALWDGGSWYPEGLSDFGSWGQGTQVTVSS |  |  |  | 7.51 | 0.000758 | 101000
4 | WNbFc 294 (Fc fusion, source: Expi293F, transfected, purified from supernatant (MabSelect Prism A, SEC)) QVQLQESGGGLVQAGGSLRLSCAASGRTFSSYAMGWFRQAPGKEREFVAAISWSGGTTYYGDSVKGRFTISRDNAKNTVYLQMNSLKPEDTAVYYCAAQGDGGSWFPEGLADFGSWGQGTQVTVSS |  |  |  | 36.9 | 0.00164 | 45000
5 | WNb 294 (VHH) VHH: QVQLQESGGGLVQAGGSLRLSCAASGRTFSSYAMGWFRQAPGKEREFVAAISWSGGTTYYGDSVKGRFTISRDNAKNTVYLQMNSLKPEDTAVYYCAAQGDGGSWFPEGLADFGSWGQGTQVTVSS | 26 | 0.00106 | 41000 |  |  | 
6 | WNb 293 (VHH) VHH: QVQLQESGGGSVQAGDSLRLSCVASGRTFSSYALGWFRRAPGKEREFVAAISWSGGTTYYADSVKGRFTISRDNAKNTVYLQMNSLKPEDTAVYYCAALWDGGSWYPEGLSDFGSWGQGTQVTVSS | 4.6 | 0.000417 | 91000 |  |  | 
7 | WNb 284 (VHH) VHH: QVQLQESGGGLVQAGGPLRLSCAASGRTFSDYFMGWFRQAPGMEREFVASISWSGGTTYYADSVKGRFTISRDNAKNTVYLQMNSLKPEDTAVYYCAAAIDYGLGLTVEYEYDYWGQGTQVTVSS | 4.01 | 0.000363 | 91000 |  |  | 
8 | WNb 292 (VHH) VHH: QVQLQESGGGLVQAGASLRLSCAASGRTFSDYAMGWFRQAPGKEREFVAAISWSGGTTYYADSVKGRFTISRDNAKNTVYLQMNSLKPEDTAVYYCAANTDYGLGLVRAYEYDYWGQGTQVTVSS | 15.6 | 0.00116 | 75000 |  |  | 
9 | WNb 296 (VHH) VHH: QVQLQESGGGLVQAGGSLRLSCAASGRTFSDYFMGWFRQAPGKEREFVASISWSGGTTYYADSVKGRFTISRDNANNTVYLQMNSLKPVDTAVYYCAAVADYGLGLTTSYEYDYWGQGTQVTVSS | 15.3 | 0.000786 | 51000 |  |  | 
10 | WNb 278 (VHH) VHH: QVQLQESGGGLVQAGGSLRLSCAASGRTFSDYFMGWFRQAPGMEREFVASISWSGGTTYYADSVKGRFTISRDNTKNTVYLQMNSLKPEDTAVYYCATAIDYGLGLTVEYEYDYWGQGTQVTVSS | 5.93 | 0.0004 | 68000 |  |  | 
11 | WNb 282 (VHH) VHH: QVQLQESGGGLVQAGDSLRLSCAASGRTFSDYFMGWFRQAPGKEREFVASISWSGGTTYYADSVKGRFTISRDNAKNTVYLQMNRVKSEDTAVYYCAAARDMGWGRTGENEYDYWGQGTQVTVSS | 2.46 | 0.000195 | 79000 |  |  | 
12 | WNb 280 (VHH) VHH: QVQLQESGGGLVQAGGSLRLSCAASGRTFSNYFMGWFRQAPGKEREFVAAISWSGGSTYYTDSVKGRFTISRDNAKNTVYLQMNSLKPEDTAVYYCAGGLDMGWSRVNLGEYDYWGQGTQVTVSS | 22.9 | 0.00161 | 70000 |  |  | 
13 | WNb 279 (VHH) VHH: QVQLQESGGGLVQPGGSLRLSCAASGRTFSDYFMGWFRQAPGKEREFVAAITWSGGSTYYTDSVKGRFTISRDNAKNTVYLQMNSLKPEDTAVYYCAGGLDMGWSRVALGEYDYWGQGTQVTVSS | 149 | 0.0086 | 58000 |  |  | 
14 | WNb 286 (VHH) VHH: QVQLQESGGGLVQAGGSLRLSCAASGRTFSSYAMGWFHQAPGKEREFVASISWSGGTTYYADSVKGRFTISRDNAKNTVYLQMNSLKPEDTAVYYCAAAVDYGLGLYRVGEYDSWGQGTQVTVSS | 58.8 | 0.00245 | 42000 |  |  | 
15 | WNb 285 (VHH) VHH: QVQLQESGGGLVQAGGSLRLSCAASGRTFSDYAMGWFRQAPGKEREFVAAISWSGGTTYYADSVKGRFTISRDNAKNTVYLQMNSLTPEDTAVYYCAADYDYGWGRVRVSEYDYWGQGTQVTVSS | 4.23 | 0.000447 | 106000 |  |  | 
16 | WNb 291 (VHH) VHH: QVQLQESGGGLVQAGGSLRLSCAASGRTFSNYFMGWFRQAPGKEREFVAAISWSGGTTYYADSVKGRFTISRDNAKNTVYLQMNSLKPEDTAVYYCAANTDYGMGFVRAYEYDYWGQGTQVTVSS | 11.7 | 0.000527 | 45000 |  |  | 
17 | WNb 281 (VHH) VHH: QVQLQESGGGLVQAGGSLRLSCAASGRTFSDYFMGWFRQAPGKEREFVTAISWSGGSTYYADSVKGRFTISRDNAKNTVFLQMNSLKPEDTAVYYCAAALDEGWARVAGPEYDYWGQGTQVTVSS | 1.55 | 0.000183 | 118000 |  |  | 
18 | WNb 288 (VHH) VHH: QVQLQESGGGLVQAGGSLRLSCAASGRTFSDYFMGWFRQAPGKEREFVAAISWSGGSTYYADSVKGRSTISRDNAKNTVYLQMNSLKPEDTAVYYCAADHDRGWARLRLAEYDYWGQGTQVTVSS | 19.6 | 0.00124 | 64000 |  |  | 
19 | WNb 299 (VHH) VHH: QVQLQESGGGWVQPGGSLRLSCAASGFTFSNYAMGWFRQAPGKEREFVATISWSGGTTVYADSVKGRFTISRDNAKNTVYLQMNSLKPEDTAVYYCAAASDYGMVQMSDYEYDYWGQGTQVTVSS | 9.9 | 0.00103 | 104000 |  |  | 
20 | WNb 297 (VHH) VHH: QVQLQESGGGSVQAGGSLRLSCAASGRTFSDYAMGWFRQAPGKEREFVASISWSGGTTYYADSVKGRFTISRDNAKNTVYLQMNSLKPEDTAVYYCAADTDYGMGLITVPDFGSWGQGTQVTVSS | 21.4 | 0.00199 | 93000 |  |  | 
21 | WNb 298 (VHH) VHH: QVQLQESGGGLVQPGGSLRLSCAASGRTFSDYFMGWFRQAPGKEREFVASISWSGGTTYYADSVKGRFTISRDNAKNTVYLQMNSLKPEDTAVYYCAAEIDYGLGLHAAADFGSWGQGTQVTVSS | 8.94 | 0.000987 | 111000 |  |  | 
22 | WNb 287 (VHH) VHH: QLQESGGGLVQPGGSLRLSCAASGRTFSFSDYAMGWFRQAPGKEREFVASISWSGGTTYYADSVKGRFTISRDNAKNTVYLQMNSLKPEDTAVYYCAAEIDRGLLLHAVYEYDYWGQGTQVTVSS | 11.2 | 0.000933 | 84000 |  |  | 
